Values quoted from earlier work in patent publication US11845786B2, “Peptides inhibiting KLK1, KLK4, or KLK4 and KLK8” (Daiichi Sankyo Company, Limited, priority 2017, dated 2023).

B1: SPINK9: human serine protease of Kazal-type 9, reported to have KLK8 inhibitory activity (protein, UniProt Q5DT21 20-86, looked up)
Serine protease inhibitor …: IECAKQTKQMVDCSHYKKLPPGQQRFCHHMYDPICGSDGKTYKNDCFFCSKVKKTDGTLKFVHFGKC

Assays:
KLK4 = KLK4 (Homo sapiens, UniProt Q9Y5K2); settings: Non Patent Literature 5
KLK12 = biological target: T1, KLK12 (Homo sapiens, UniProt Q9UKR0); settings: Non Patent Literature 5
T1 sequence (Q9UKR0 18-248): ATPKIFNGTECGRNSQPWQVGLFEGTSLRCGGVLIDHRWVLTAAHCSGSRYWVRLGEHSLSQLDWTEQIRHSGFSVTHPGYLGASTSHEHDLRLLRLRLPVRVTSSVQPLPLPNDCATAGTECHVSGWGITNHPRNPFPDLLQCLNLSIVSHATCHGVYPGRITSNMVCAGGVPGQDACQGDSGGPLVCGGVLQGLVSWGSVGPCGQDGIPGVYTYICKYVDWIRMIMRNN

KLK13 = biological target: T2, KLK13 (Homo sapiens, UniProt Q9UKR3); settings: Non Patent Literature 5
T2 sequence (Q9UKR3 17-277): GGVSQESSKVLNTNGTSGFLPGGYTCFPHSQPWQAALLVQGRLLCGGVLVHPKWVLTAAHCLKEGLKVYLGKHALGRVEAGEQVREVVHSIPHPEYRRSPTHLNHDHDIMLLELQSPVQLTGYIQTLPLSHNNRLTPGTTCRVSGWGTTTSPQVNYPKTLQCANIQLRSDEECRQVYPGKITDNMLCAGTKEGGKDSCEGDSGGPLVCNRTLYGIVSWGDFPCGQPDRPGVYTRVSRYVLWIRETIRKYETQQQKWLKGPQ

KLK8 = biological target: T3, KLK8 (Homo sapiens, UniProt O60259); settings: Non Patent Literature 7
T3 sequence (O60259 33-260): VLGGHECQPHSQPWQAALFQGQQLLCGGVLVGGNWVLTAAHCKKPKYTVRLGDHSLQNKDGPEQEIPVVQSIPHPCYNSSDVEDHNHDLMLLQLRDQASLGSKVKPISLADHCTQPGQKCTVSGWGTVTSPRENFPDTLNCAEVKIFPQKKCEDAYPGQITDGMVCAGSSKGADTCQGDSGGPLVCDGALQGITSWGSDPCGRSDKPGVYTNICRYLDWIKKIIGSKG

Sequence of KLK4 (Q9Y5K2 31-254): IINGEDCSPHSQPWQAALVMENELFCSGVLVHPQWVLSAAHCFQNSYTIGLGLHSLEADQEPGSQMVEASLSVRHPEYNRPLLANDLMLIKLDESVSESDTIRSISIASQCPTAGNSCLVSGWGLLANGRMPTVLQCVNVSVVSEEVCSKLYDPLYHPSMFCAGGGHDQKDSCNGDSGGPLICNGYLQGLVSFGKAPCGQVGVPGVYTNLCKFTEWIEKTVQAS

| Molecule | Ki (KLK4) [nM] | Ki (KLK12) [nM] | Ki (KLK13) [nM] | KLK8 inhibitory activity (KLK8) |
| --- | --- | --- | --- | --- |
| SPINK6: human serine protease of Kazal-type 6, natural KLK4 inhibitor of low specificity (QGGQVDCGEFQDPKVYCTRESNPHCGSDGQTYGNKCAFCKAIVKSGGKISLKHPGKC; UniProt Q6UWN8 24-80, looked up) | 27 | 1 | 1 | – |
| B1 | – | – | – | very weak |
